Biological target: T1, biotinylated ClfA001 (Staphylococcus aureus)
T1 chain: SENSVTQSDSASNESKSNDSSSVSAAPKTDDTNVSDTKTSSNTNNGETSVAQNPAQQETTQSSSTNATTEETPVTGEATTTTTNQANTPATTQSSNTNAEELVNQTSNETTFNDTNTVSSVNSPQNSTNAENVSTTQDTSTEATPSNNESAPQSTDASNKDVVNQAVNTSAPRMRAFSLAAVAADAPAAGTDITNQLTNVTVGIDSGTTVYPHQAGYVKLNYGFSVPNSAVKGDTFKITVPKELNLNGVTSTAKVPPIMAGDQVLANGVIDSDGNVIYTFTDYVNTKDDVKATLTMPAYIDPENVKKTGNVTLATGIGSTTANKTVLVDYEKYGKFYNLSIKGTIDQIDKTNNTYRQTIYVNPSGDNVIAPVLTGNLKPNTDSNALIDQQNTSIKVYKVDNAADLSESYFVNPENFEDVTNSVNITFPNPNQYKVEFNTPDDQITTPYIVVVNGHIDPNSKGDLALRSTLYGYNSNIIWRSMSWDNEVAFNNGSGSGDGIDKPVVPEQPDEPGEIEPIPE
Assay: fibrinogen-binding inhibition ELISA: biotinylated ClfA001 (2 µg/ml) on a fibrinogen-coated plate, antibody titrated

B1: SAR114 (antibody, V domains shown)
VH: QVQLQESGPGLVKPSETLSLTCTVSGGSIQNSYWSWIRQPPGKGLEWIGYLYSSGRTNYTPSLKSRVTISVDTSKNQFSLKLSSVTAADTAVYYCARTHLGGFHYGGGFWFDPWGQGTLVTVSS
VL: DIQMTQSPSSLSASVGDRVTITCRASQSITSYLNWYQQKPGKAPKLLIYASSSLQSGVPSRFSGSGSGTDFTLTISSLQPEDFATYYCQESYSTPPTFGQGTKVEIK
notes: also called anti-ClfA mAb SAR114
IC50: 3.02 µg/mL

From patent publication US20220089699A1 (AstraZeneca / MedImmune, published 2022)
